Experiment [1] concerns the target T1, extracellular domain of the human PD-1 protein (hPD1ex-H6F) (Homo sapiens, UniProt Q15116 21-170).
T1 construct: Molecular weight 20.6 kDa; made in CHO cells; also called hPDlex-H6F; not shown: C-terminal His and FLAG tags
Kind of experiment: BLI Octet RED 384; antibody on ProA sensor, antigen 30 ug/ml (1456 nM); response at end of association. Here is the method:
(§1) Experimental study of nonspecific binding of bispecific chimeric antibodies to non-target antigens was performed on Forte Bio Octert RED 384. Protein A (ProA) biosensors (ForteBio) were immersed into a solution containing antibodies at a concentration of 10 μg/ml for 150 seconds to immobilize same. The baseline was recorded in a 1×KB solution for 30 seconds. The antibody-loaded sensors were then immersed into wells containing non-target antigens at a concentration of 30 μg/ml for 150 seconds. Complex dissociation was then recorded for 30 seconds.
(§2) The reference sensors went through all the steps as the sensors used to record analyte sensograms did, with the exception of the association step—at the association step, the sensors were immersed in a kinetic buffer solution without analyte (the reference sensor signals were measured in parallel with the recording of the main sensograms). The reference signal was subtracted from the signal received on sensors interacting with the analyte during the processing of sensograms.
(§3) Sensograms were processed using ForteBio Octet Data Analysisn 9.0 software. To report no non-specific interaction, the recorded signal level was checked at the end of the association step (the response parameter).
For orientation: In BLI a coated tip is dipped into the sample, and binding shifts an interference pattern.

Experiment [2] concerns the target T2, Her3-H6F, Receptor tyrosine-protein kinase erbB-3 (Homo sapiens) aa 21-643 (Homo sapiens, UniProt P21860 21-643).
T2 construct: not shown: His and FLAG tags implied by the name 'H6F'
Kind of experiment: BLI Octet RED 384; antibody on ProA sensor, antigen 30 ug/ml (420.8 nM); response at end of association. Here is the method: as §1, §2, §3

The target of experiment [3] is T3, biotinylated peptide [NH2]…JQS[CH2CH2]biotin comprising a fragment of the human CD20 sequence (human, [NH2] at the N-terminus; [CH2CH2]biotin at the C-terminus; the letter J at position 20 is printed so and is not a standard residue code).
T3 construct: also called CD20 peptide
T3 sequence (peptide, as listed by the source): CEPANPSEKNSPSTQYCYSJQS
Kind of experiment: BLI Octet RED 384; biotinylated peptide on SAX sensor, antibody in solution; 1:1 global fit. Here is the method: In the case of the biotinylated CD20 peptide, the peptide at a concentration of 5 μg/ml was immobilized on the surface of SAX sensors (High Precision Streptavidin (SAX) biosensors, ForteBio) for 120 seconds. The baseline was recorded in a 1×KB solution for 120 seconds. The sensors containing the loaded peptide were immersed into wells containing the antibody solution (analyte) in 1×KB for 15 seconds. Measurements were carried out for solutions with analyte (antibodies in the case of CD20 peptide) at concentrations of 150 μg/ml, 75 μg/ml, 37.5 μg/ml. Complex dissociation was recorded in 1×KB for 120 seconds.
(§4) All measurements were carried out at 30° C., orbital mixing speed was 1,000 revolutions per minute.
(§5) To obtain numerical values of kinetic constants (kₒₙ is the on/association rate constant, kdis is the dissociation rate constant, KD is the equilibrium dissociation constant or affinity constant), the resulting sensograms were processed according to the 1:1 interaction model using Global Fit (selection of one set of kon, kdis, KD constants to analyze several sensograms of different concentrations) of the ForteBio Octet Data Analysis 9.0 software.

Experiment [4] concerns the target T4, Macaca CSF1R_C-His, Macrophage colony-stimulating factor 1 receptor (Macaca mulatta) aa 20-513 (Macaca mulatta).
T4 construct: range 20-513
Kind of experiment: BLI Octet RED 384; antibody on ProA sensor, antigen 30 ug/ml (534.8 nM); response at end of association. The procedure: as §1, §2, §3

The target in experiment [5] is T5, extracellular domain of the human CSF1R protein (hCSF1R_His) (Homo sapiens, UniProt P07333 20-512).
T5 construct: range 20-512; Molecular weight 57.4 kDa; made in CHO cells; also called hCSF1_His; not shown: C-terminal His and FLAG tags
T5 sequence (P07333 20-512 limits assumed): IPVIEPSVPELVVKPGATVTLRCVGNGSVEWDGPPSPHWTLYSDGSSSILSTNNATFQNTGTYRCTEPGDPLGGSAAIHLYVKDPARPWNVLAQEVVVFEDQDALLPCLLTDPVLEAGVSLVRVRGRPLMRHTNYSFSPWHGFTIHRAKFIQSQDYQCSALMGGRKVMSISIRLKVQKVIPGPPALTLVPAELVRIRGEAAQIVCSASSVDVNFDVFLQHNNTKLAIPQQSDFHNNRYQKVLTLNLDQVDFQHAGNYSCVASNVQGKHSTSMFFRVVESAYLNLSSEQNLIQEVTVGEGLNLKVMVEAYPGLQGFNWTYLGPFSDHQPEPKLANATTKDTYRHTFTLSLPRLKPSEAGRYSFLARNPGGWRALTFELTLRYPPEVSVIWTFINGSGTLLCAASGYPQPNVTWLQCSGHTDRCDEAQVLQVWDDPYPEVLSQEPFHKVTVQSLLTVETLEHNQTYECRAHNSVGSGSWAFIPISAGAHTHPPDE
Kind of experiment: BLI Octet RED 384; antibody on ProA sensor, antigen in solution; 1:1 global fit. The procedure:
(§6) The experiments were carried out using a kinetic buffer solution (hereinafter referred to as 1×KB) having the following formulation: 4.3 mM Na₂HPO₄; 136.9 mM NaCl, 1.5 mM KH₂PO₄; 2.7 mM KCl; the volume fraction of the added Tween 20 was 0.1%; the mass fraction of the added BSA (bovine serum albumin) was 0.1%; pH 7.4. Before the measurement, the ProA sensors were regenerated with a solution of 50 mM glycine and hydrochloric acid, pH 1.8 (5 seconds in the regenerating solution, 5 seconds in 1×KB, three repetitions). In the case of the hPD1ex-H6F and hCSF1R_His antigens, the Protein A (ProA) biosensors (ForteBio) were immersed in a solution with antibodies at a concentration of 10 μg/ml for 60 seconds to immobilize same. The baseline was recorded in 1×KB for 60 seconds. The sensors loaded with the antibody were then immersed into wells containing a solution of the target antigen (analyte) in a kinetic buffer for 90 seconds. Measurements were performed for solutions with hPDlex-H6F analyte at concentrations of 2.50 μg/ml (121.4 nM), 1.25 μg/ml (60.7 nM), 0.625 μg/ml (30.35 nM). […] Then we detected complex dissociation in 1×KB for 210 s for hPDlex-H6F, 300 s for hCSF1R_His.
as §4, §5

The target in experiment [6] is T6, C-Avi-His-TEVs-HSA_hBCMA, Tumor necrosis factor receptor superfamily member 17 (Homo sapiens) aa 1-54 (Homo sapiens, UniProt Q02223 1-54).
T6 construct: range 1-54; not shown: Avi, His, TEV site and HSA parts as the name implies
T6 sequence (looked up): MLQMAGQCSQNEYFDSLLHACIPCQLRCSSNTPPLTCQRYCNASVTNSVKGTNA
Kind of experiment: BLI Octet RED 384; antibody on ProA sensor, antigen 30 ug/ml.

The target in experiment [7] is T1, extracellular domain of the human PD-1 …. Kind of experiment: BLI Octet RED 384; antibody on ProA sensor, antigen in solution; 1:1 global fit. Here is the method: as §6, §4, §5

T2 sequence (P21860 21-643 limits assumed): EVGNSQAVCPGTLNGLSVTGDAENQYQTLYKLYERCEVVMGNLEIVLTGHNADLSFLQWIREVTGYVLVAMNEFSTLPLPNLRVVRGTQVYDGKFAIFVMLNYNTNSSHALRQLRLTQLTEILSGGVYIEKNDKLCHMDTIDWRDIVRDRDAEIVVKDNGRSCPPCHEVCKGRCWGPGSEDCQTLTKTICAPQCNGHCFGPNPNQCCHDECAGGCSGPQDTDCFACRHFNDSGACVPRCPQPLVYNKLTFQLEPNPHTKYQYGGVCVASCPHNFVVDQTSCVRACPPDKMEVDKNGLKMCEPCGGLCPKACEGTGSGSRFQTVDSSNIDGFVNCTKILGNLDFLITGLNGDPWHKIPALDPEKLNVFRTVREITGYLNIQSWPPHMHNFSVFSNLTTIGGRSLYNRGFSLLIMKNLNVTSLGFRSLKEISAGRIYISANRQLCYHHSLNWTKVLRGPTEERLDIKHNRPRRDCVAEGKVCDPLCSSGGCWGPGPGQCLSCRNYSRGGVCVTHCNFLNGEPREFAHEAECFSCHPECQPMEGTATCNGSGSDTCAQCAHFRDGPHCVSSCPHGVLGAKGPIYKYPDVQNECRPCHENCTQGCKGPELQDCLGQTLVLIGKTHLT
T1 sequence (Q15116 21-170 limits assumed, form in doubt): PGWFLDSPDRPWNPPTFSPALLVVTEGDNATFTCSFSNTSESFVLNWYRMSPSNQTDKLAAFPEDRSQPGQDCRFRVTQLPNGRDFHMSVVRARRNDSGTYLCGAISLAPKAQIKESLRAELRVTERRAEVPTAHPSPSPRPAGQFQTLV

B1: 02-008, bivalent bispecific chimeric antibody that specifically binds to CD20 and CSF1R (bispecific antibody, human IgG1, kappa, L234A L235A)
heavy 1: EVQLVESGGGLVQPGGSLRLSCAASGYTFTSYNMHWVRQAPGKGLEWVGAIYPGNGDTSYNQKFKGRFTISVDKSKNTLYLQMNSLRAEDTAVYYCARVVYYSNSYWYFDVWGQGTLVTVSSASTKGPSVFPLAPSSKSTSGGTAALGCLVKDYFPEPVTVSWNSGALTSGVHTFPAVLQSSGLYSLSSVVTVPSSSLGTQTYICNVNHKPSNTKVDKRVEPKSCDKTHTCPPCPAPEAAGGPSVFLFPPKPKDTLYITREPEVTCVVVDVSHEDPEVKFNWYVDGVEVHNAKTKPREEQYNSTYRVVSVLTVLHQDWLNGKEYKCKVSNKALPAPIEKTISKAKGQPREPQVCTLPPSRDELTKNQVSLSCAVKGFYPSDIAVEWESNGQPENNYKTTPPVLDSDGSFFLVSKLTVDKSRWQQGNVFSCSVMHEALHNHYTQKSLSLSPGK
light 1: DIQMTQSPSSLSASVGDRVTITCRASSSVSYMHWYQQKPGKAPKPLIYAPSNLASGVPSRFSGSGSGTDFTLTISSLQPEDFATYYCQQWSFNPPTFGQGTKVEIKRTVAAPSVFIFPPSDEQLKSGTASVVCLLNNFYPREAKVQWKVDNALQSGNSQESVTEQDSKDSTYSLSSTLTLSKADYEKHKVYACEVTHQGLSSPVTKSFNRGEC
heavy 2: not shown
light 2: QAGLTQPPSVSVAPGQTARITCGGNNIGSKSVHWYQQKPGQAPVLVVYGDSDRPSGIPERFSGSNSGNTATLTISRVEAGDEADYYCQVWDISSDHVVFGGGTQLTVLQRQVKPEAWLSSGPSPGPGRLQLVCHVSGFYPKPVWVMWMRGEQEQQGTQLGDILPNANWTWYLRATLDVADGEAAGLSCRVKHSSLEGQDIILYWRGSC
notes: Produced in CHO cells
By Kd is commonly meant the concentration at which binding is half-saturated. For orientation: koff means the first-order rate constant of dissociation. Read a high koff as a short-lived complex. What is called kon is a measure of how fast the partners come together. A higher kon goes with faster complex formation. In the case of B1, the “Signal level (nm)” value was -0.0033 nm in experiment [1], -0.0108 nm in experiment [2] and 0.549 nm in experiment [4]. For the same molecule, the Kd in experiment [3] came to 892 nM; in experiment [5], 0.549 nM. Also, the koff came to 0.329 s⁻¹ in experiment [3] and 0.000236 s⁻¹ in experiment [5]. The kon in experiment [3] is 369000 M⁻¹ s⁻¹; in experiment [5], 429000 M⁻¹ s⁻¹.

B2: 02-004, bivalent bispecific chimeric antibody that specifically binds to PD1 and CD20 (bispecific antibody, human IgG1, kappa, L234A L235A)
heavy 1: QVQLVQSGGGLVQPGGSLRLSCAASGFTFSSYWMYWVRQVPGKGLEWVSAIDTGGGRTYYADSVKGRFAISRVNAKNTMYLQMNSLRAEDTAVYYCARDEGGGTGWGVLKDWPYGLDAWGQGTLVTVSSASTKGPSVFPLAPSSKSTSGGTAALGCLVKDYFPEPVTVSWNSGALTSGVHTFPAVLQSSGLYSLSSVVTVPSSSLGTQTYICNVNHKPSNTKVDKRVEPKSCDKTHTCPPCPAPEAAGGPSVFLFPPKPKDTLYITREPEVTCVVVDVSHEDPEVKFNWYVDGVEVHNAKTKPREEQYNSTYRVVSVLTVLHQDWLNGKEYKCKVSNKALPAPIEKTISKAKGQPREPQVCTLPPSRDELTKNQVSLSCAVKGFYPSDIAVEWESNGQPENNYKTTPPVLDSDGSFFLVSKLTVDKSRWQQGNVFSCSVMHEALHNHYTQKSLSLSPGK
light 1: QPVLTQPLSVSVALGQTARITCGGNNIGSKNVHWYQQKPGQAPVLVIYRDSNRPSGIPERFSGSNSGNTATLTISRAQAGDEADYYCQVWDSSTAVFGTGTKLTVLQRTVAAPSVFIFPPSDEQLKSGTASVVCLLNNFYPREAKVQWKVDNALQSGNSQESVTEQDSKDSTYSLSSTLTLSKADYEKHKVYACEVTHQGLSSPVTKSFNRGEC
heavy 2: not shown
light 2: DIQMTQSPSSLSASVGDRVTITCRASSSVSYMHWYQQKPGKAPKPLIYAPSNLASGVPSRFSGSGSGTDFTLTISSLQPEDFATYYCQQWSFNPPTFGQGTKVEIKQRQVKPEAWLSSGPSPGPGRLQLVCHVSGFYPKPVWVMWMRGEQEQQGTQLGDILPNANWTWYLRATLDVADGEAAGLSCRVKHSSLEGQDIILYWRGSC
notes: Produced in CHO cells
As to B2, the “Signal level (nm)” value came out at 0.35 nm in experiment [1], 0.0217 nm in experiment [2] and 0.0236 nm in experiment [4]. For the same molecule, the values for the Kd in experiment [3] and in experiment [7] were 1270 nM and 3.49 nM, respectively. In addition, the koff came to 0.238 s⁻¹ in experiment [3] and 0.000753 s⁻¹ in experiment [7]. Also, the on-rate (kon) in experiment [3] came out at 188000 M⁻¹ s⁻¹; in experiment [7], 216000 M⁻¹ s⁻¹. Also, in experiment [6], the binding result is recorded as “no binding (tested: 391.2 nM)”.

B3: 02-009, bivalent bispecific chimeric antibody that specifically binds to CD20 and CSF1R (bispecific antibody, human IgG1, kappa, L234A L235A)
heavy 1: QVQLVESGGGLVRPGGSLRLSCAASEFTFDDYAMSWVRQAPGKGLEWVSAISWNGGSTNYADSVKGRFTISRDNAKNSLYLQMNSLRAEDTALYYCASTVEVAHRRLYKYLEVWGQGTLVTVSSASTKGPSVFPLAPSSKSTSGGTAALGCLVKDYFPEPVTVSWNSGALTSGVHTFPAVLQSSGLYSLSSVVTVPSSSLGTQTYICNVNHKPSNTKVDKRVEPKSCDKTHTCPPCPAPEAAGGPSVFLFPPKPKDTLYITREPEVTCVVVDVSHEDPEVKFNWYVDGVEVHNAKTKPREEQYNSTYRVVSVLTVLHQDWLNGKEYKCKVSNKALPAPIEKTISKAKGQPREPQVCTLPPSRDELTKNQVSLSCAVKGFYPSDIAVEWESNGQPENNYKTTPPVLDSDGSFFLVSKLTVDKSRWQQGNVFSCSVMHEALHNHYTQKSLSLSPGK
light 1: QAGLTQPPSVSVAPGQTARITCGGNNIGSKSVHWYQQKPGQAPVLVVYGDSDRPSGIPERFSGSNSGNTATLTISRVEAGDEADYYCQVWDISSDHVVFGGGTQLTVLRTVAAPSVFIFPPSDEQLKSGTASVVCLLNNFYPREAKVQWKVDNALQSGNSQESVTEQDSKDSTYSLSSTLTLSKADYEKHKVYACEVTHQGLSSPVTKSFNRGEC
heavy 2: not shown
light 2: B2 light 2
notes: Produced in CHO cells
Take B3: the figures for the “Signal level (nm)” value in experiment [1], in experiment [2] and in experiment [4] were -0.0059 nm, -0.0161 nm and 0.531 nm, respectively. For the same molecule, the results for the dissociation constant (Kd) in experiment [3] and in experiment [5] were 820 nM and 0.42 nM, respectively. Also, the koff worked out at 0.177 s⁻¹ in experiment [3] and 0.00021 s⁻¹ in experiment [5]. The on-rate (kon) in experiment [3] is 216000 M⁻¹ s⁻¹; in experiment [5], 500000 M⁻¹ s⁻¹.
